In test [1] the target is M2(4) (derivative of M2 containing the C-terminal linker of DEBS module 4; plasmid pST179) (UniProt Q03133). Briefly: fit of the rate of tetraketide formation against (5)M3+TE concentration (0.5-5 µM) at fixed 0.5 µM M2(4); kinetic saturation curve.
Test [2] concerns the target M2 (module 2 of DEBS with the natural C-terminal linker for module 2; plasmid pBP19) (UniProt Q03133). Briefly: fit of the rate of tetraketide formation against M3+TE concentration (0.4-4 µM) at fixed 1.0 µM M2; kinetic saturation curve.
Test [3] concerns the target (5)M5+TE (M5+TE; plasmid pRSG46) (UniProt Q03133). Briefly: cell-based or functional assay.

We go through 3 substances from patent US7001748.

Some results are limits rather than exact numbers.

A word on the Kd: it is the equilibrium constant for the complex coming apart. “(5)M3+TE (derivative of M3+TE where the natural N-terminal linker has been replaced with the N-terminal linker of module 5 of DEBS; plasmid pST132) (from UniProt Q03133 2-41; Q03132 33-1467; Q03133 2960-3166) (enzyme)” returned a Kd in test [1] of 2100 nM. This lies in the single-digit micromolar range.
Regarding “M3+TE (module 3 of DEBS with its own N-terminal linker and with the thioesterase fused to the C-terminus; plasmid pRSG34) (from UniProt Q03132 33-1467; Q03133 2960-3166) (enzyme)”, in test [2], the Kd was found to be 1100 nM.
“acyl-ACP4(4) adduct 4a ((2S,3R)-diketide on ACP4(4)) (from UniProt Q03132 3398-3567)” returned a maximal rate increase in the elongation of 4a versus 2a in test [3] of over 40 fold.
